From patent US20230060095A1 (Regeneron, published 2023)
Residue numbers refer to the chain shown, from its start.

T1: PRAME peptide on HLA-A*02:01 (human)
T1 peptide: SLLQHLIGL

T2: peptide on HLA-A*02:01 (human)
T2 peptide: SLLMWITQC

T3: PRAME peptide on HLA-A*02:01 (human)
T3 peptide: RLDQLLRHV

B1: PN42707 (TCR, V domains shown)
V domain 1: GESVGLHLPTLSVQEGDNSIINCAYSNSASDYFIWYKQESGKGPQFIIDIRSNMDKRQGQRVTVLLNKTVKHLSLQIAATQPGDSAVYFCAENKRDNYGQNFVFGPGTRLSVLP
V domain 2: EAQVTQNPRYLITVTGKKLTVTCSQNMNHEYMSWYRQDPGLGLRQIYYSMNVEVTDKGDVPEGYKVSRKEKRNFPLILESPSPNQTSLYFCASSFWVNTEAFFGQGTRLTVV
B2: PN42762 (TCR, V domains shown)
V domain 1: DAKTTQPNSMESNEEEPVHLPCNHSTISGTDYIHWYRQLPSQGPEYVIHGLTSNVNNRMASLAIAEDRKSSTLILHRATLRDAAVYYCILNTGTASKLTFGTGTRLQVTL
V domain 2: B1 V domain 2 with F95L, W96S, V97S
B3: PN42815 (TCR, V domains shown)
V domain 1: GESVGLHLPTLSVQEGDNSIINCAYSNSASDYFIWYKQESGKGPQFIIDIRSNMDKRQGQRVTVLLNKTVKHLSLQIAATQPGDSAVYFCAENNYGQNFVFGPGTRLSVLP
V domain 2: B1 V domain 2 with F95L, V97D, N98S, T99S, E100P, A101L, F102H, Q105N, V112T
notes: the summary and claims print the pair as 893/805
B4: PN42441 (TCR, V domains shown)
V domain 1: DAKTTQPNSMESNEEEPVHLPCNHSTISGTDYIHWYRQLPSQGPEYVIHGLTSNVNNRMASLAIAEDRKSSTLILHRATLRDAAVYYCIRRPGNQFYFGTGTSLTVIP
V domain 2: B1 V domain 2 with F95L, V97T, N98G, T99S
B5: PN42826 (TCR, V domains shown)
V domain 1: DQQVKQNSPSLSVQEGRISILNCDYTNSMFDYFLWYKKYPAEGPTFLISISSIKDKNEDGRFTVFLNKSAKHLSLHIVPSQPGDSAVYFCAASAGSARQLTFGSGTQLTVLP
V domain 2: B1 V domain 2 with F95L, W96Y, V97T, N98H
B6: PN42746 (TCR, V domains shown)
V domain 1: B1 V domain 1 with K94R, R95Q
V domain 2: B1 V domain 2 with F95L
B7: PN42895 (TCR, V domains shown)
V domain 1: B5 V domain 1 with N7S
V domain 2: B1 V domain 2 with F95L, V97S
B8: PN42845 (TCR, V domains shown)
V domain 1: TQLLEQSPQFLSIQEGENLTVYCNSSSVFSSLQWYRQEPGEGPVLLVTVVTGGEVKKLKRLTFQFGDARKDSSLHITAAQPGDTGLYLCAGIRSNDYKLSFGAGTTVTVRA
V domain 2: EAQVTQNPRYLITVTGKKLTVTCSQNMNHEYMSWYRQDPGLGLRQIYYSMNVEVTDKGDVPEGYKVSRKEKRNFPLILESPSPNQTSLYFCASSSWTAHTEAFFGQGTRLTVV
B9: PN42774 (TCR, V domains shown)
V domain 1: QKEVEQNSGPLSVPEGAIASLNCTYSDRGSQSFFWYRQYSGKSPELIMSIYSNGDKEDGRFTAQLNKASQYVSLLIRDSQPSDSATYLCAVNRGTDKLIFGTGTRLQVFP
V domain 2: DAGVTQSPTHLIKTRGQQVTLRCSPKSGHDTVSWYQQALGQGPQFIFQYYEEEERQRGNFPDRFSGHQFPNYSSELNVNALLLGDSALYLCASSWTDYGYTFGSGTRLTVV
B10: PN42558 (TCR, V domains shown)
V domain 1: GIQVEQSPPDLILQEGANSTLRCNFSDSVNNLQWFHQNPWGQLINLFYIPSGTKQNGRLSATTVATERYSLLYISSSQTTDSGVYFCVLGGGSQGNLIFGKGTKLSVKP
V domain 2: B9 V domain 2 with W95F
B11: PN42795 (TCR, V domains shown)
V domain 1: RKEVEQDPGPFNVPEGATVAFNCTYSNSASQSFFWYRQDCRKEPKLLMSVYSSGNEDGRFTAQLNRASQYISLLIRDSKLSDSATYLCVVNGGSQGNLIFGKGTKLSVKP
V domain 2: B9 V domain 2 with W95V, T96G
B12: PN42870 (TCR, V domains shown)
V domain 1: TQLLEQSPQFLSIQEGENLTVYCNSSSVFSSLQWYRQEPGEGPVLLVTVVTGGEVKKLKRLTFQFGDARKDSSLHITAAQPGDTGLYLCAENSGGGADGLTFGKGTHLIIQP
V domain 2: B9 V domain 2 with W95F
B13: PN42450 (TCR, V domains shown)
V domain 1: AQRVTQPEKLLSVFKGAPVELKCNYSYSGSPELFWYVQYSRQRLQLLLRHISRESIKGFTADLNKGETSFHLKKPFAQEEDSAMYYCALGNTDKLIFGTGTRLQVFP
V domain 2: DVKVTQSSRYLVKRTGEKVFLECVQDMDHENMFWYRQDPGLGLRLIYFSYDVKMKEKGDIPEGYSVSREKKERFSLILESASTNQTSMYLCASSSPRTGWYGYTFGSGTRLTVV
B14: PN46909 (TCR, V domains shown)
V domain 1: AQTVTQSQPEMSVQEAETVTLSCTYDTSENNYYLFWYKQPPSRQMILVIRQEAYKQQNATENRFSVNFQKAAKSFSLKISDSQLGDTAMYFCAFDYGQNFVFGPGTRLSVLP
V domain 2: NAGVTQTPKFRILKIGQSMTLQCAQDMNHNYMYWYRQDPGMGLKLIYYSVGAGITDKGEVPNGYNVSRSTTEYFPLRLELAAPSQTSVYFCASSYGGGQTEAFFGQGTRLTVV
notes: stained with anti-mouse TCR constant region antibody H57-597) and full-length chains were expressed on CHO cells
B15: PN42712 (TCR, V domains shown)
V domain 1: GIQVEQSPPDLILQEGANSTLRCNFSDSVNNLQWFHQNPWGQLINLFYIPSGTKQNGRLSATTVATERYSLLYISSSQTTDSGVYFCAVGSSNDYKLSFGAGTTVTVRA
V domain 2: EAQVTQNPRYLITVTGKKLTVTCSQNMNHEYMSWYRQDPGLGLRQIYYSMNVEVTDKGDVPEGYKVSRKEKRNFPLILESPSPNQTSLYFCASSPGTGGFSPLHFGNGTRLTVT
B16: PN42833 (TCR, V domains shown)
V domain 1: DAKTTQPPSMDCAEGRAANLPCNHSTISGNEYVYWYRQIHSQGPQYIIHGLKNNETNEMASLIITEDRKSSTLILPHATLRDTAVYYCIVRDTTSGTYKYIFGTGTRLKVLA
V domain 2: B15 V domain 2 with P95L, G96S, T97S, G98T
B17: PN42711 (TCR, V domains shown)
V domain 1: B15 V domain 1 with A17V, Q78R, D94G
V domain 2: B15 V domain 2

How the values were obtained:
[1] = target: HLA-A2/PRAME (425-433) on HLA-A2*01 HEK293T cells pulsed with PRAME 425-433 peptide (human); test: cell-based or functional assay
[2] = target: T1, PRAME peptide on HLA-A*02:01; test: multimer staining
peptide on HLA-A*02:01 = target: T2, peptide on HLA-A*02:01; test: activation reporter or marker
[3] = target: T4, soluble HLA:A2:PRAME (425-433) tetramer (human); test: flow cytometry, soluble pMHC tetramer on CHO cells expressing the TCR;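 also: CHO cells transfected with vectors encoding full-length paired TCR alpha and beta chains, stained with PRAME/HLA tetramer and read by flow cytometry, each value reflects one listed TCR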
T4 construct: Commercial tetramer (MBL International); construct limits, biotin tag and streptavidin/fluorophore not described; also called PRAME/HLA tetramer reagent; PRAME (425-433)/HLA-A2

[4] = target: T3, PRAME peptide on HLA-A*02:01; test: multimer staining
[5] = target: T5, soluble HLA-A2:PRAME (312-320) tetramer (human); test: flow cytometry, soluble pMHC tetramer on CHO cells expressing the TCR
T5 construct: Commercial tetramer (MBL International); construct limits, biotin tag and streptavidin/fluorophore not described; also called PRAME/HLA tetramer reagent

Row | Binder | EC50 (µM) of peptide, AP1 luciferase reporter in Jurkat cells expressing the TCR [1] [µM] | binding result [2] | binding result (peptide on HLA-A*02:01) | Cell Frequency ≥1000 MFI, ≥1% (% tetramer positive cells in the Ag+ gate) [3] [%] | binding result [4] | Cell Frequency ≥1000 MFI, ≥1% (% tetramer positive cells in the Ag+ gate) [5] [%]
1 | B1 | 0.0118 | recognises | no recognition | 7.28 |  | 
2 | B2 | 115 | recognises | no recognition | 4.95 |  | 
3 | B3 | 0.126 | recognises | no recognition | 4.35 |  | 
4 | B4 | 0.821 | recognises | no recognition | 15.5 |  | 
5 | B5 | 4.92 | recognises | no recognition | 9.26 |  | 
6 | B6 | 0.046 | recognises | no recognition | 4.39 |  | 
7 | B7 | 0.94 | recognises | no recognition | 4.09 |  | 
8 | B8 | 0.911 | recognises | no recognition | 10.5 |  | 
9 | B9 | 0.876 | recognises | no recognition | 91.6 |  | 
10 | B10 | 0.261 | recognises | no recognition | 85.7 |  | 
11 | B11 | 0.245 | recognises | no recognition | 49.4 |  | 
12 | B12 | 0.13 | recognises | no recognition | 7.27 |  | 
13 | B13 | 0.0336 | recognises | no recognition | 62.2 |  | 
14 | B14 |  |  |  |  | recognises | 52.6
15 | B15 | 0.0133 | recognises | no recognition | 80.7 |  | 
16 | B16 | 0.0479 | recognises | no recognition | 6.86 |  | 
17 | B17 | 0.0569 | recognises | no recognition | 4.26 |  | 
